# Measured values taken from patent US20190016825A1 (JIANGSU HENGRUI MEDICINE, published 2019).
# Key:
# PCSK9-D374Y-BP15-His6 = biological target: T1, PCSK9-D374Y-BP15-His6 (human, UniProt Q8NBP7 31-692, biotin on the BP15 biotin receiving peptide); test: ELISA, bio-PCSK9-Y captured on streptavidin plate
# T1 construct: also called PCSK9-Y; mutant PCSK9
# Protocol: The binding ability of anti-PCSK9 antibodies of the present invention to PCSK9-Y was detected by measuring the amount of antibodies binding to PCSK9-Y (mutant PCSK9, SEQ ID NO: 6) fixed on the ELISA plate.
# Streptavidin (sigma, CAT#54762) was diluted to 2 μg/ml with PBS and coated into 96-well ELISA plate at 4° C. overnight. The plate was washed and then blocked with Tris buffer (including 0.9 mM CaCl₂, 0.05% Tween 20 and 5% skim milk) at 37° C. for 2 hours. Then the plate was washed again and 100 μl/well of the biotin-labeled PCSK9-Y, produced in-house, (bio-PCSK9-Y, diluted with Tris buffer containing 0.9 mM CaCl₂, 0.05% Tween 20 and 1% skim milk) was added and incubated at 37° C. for 1 hour. After the wash step, different concentrations of diluted PCSK9 antibody samples were added to the plate and incubated at 37° C. for 1 hour. Then the plate was washed again and HRP-goat-anti-human (H+L) antibody (Jackson ImmunoResearch, CAT#109-035-088) was added and incubated at 37° C. for 1 hour. Then the plate was washed again and tetramethylbenzidine solution was added for development. Finally, the stop solution was added and the OD450 value was measured on the Microplate reader, and then EC50 was calculated.
# The results of ELISA test for the binding ability of chimeric antibodies and back-mutated antibodies of the present invention to mutant PCSK9 are shown in table 6.
# PCSK9-BP15-His6 = biological target: T2, PCSK9-BP15-His6 (human, UniProt Q8NBP7 31-692, biotin on the BP15 biotin receiving peptide); test: ELISA, bio-WT-PCSK9 captured on streptavidin plate
# T2 construct: It holds a signal peptide (underlined in print); also called WT PCSK9; bio-WT-PCSK9
# Protocol: The binding ability of anti-PCSK9 antibodies of the present invention to PCSK9 was detected by measuring the amount of antibodies binding to wild-type PCSK9 protein (WT PCSK9, SEQ ID NO: 5) fixed on the ELISA plate.
# Streptavidin (sigma, CAT#S4762) was diluted to 2 μg/ml with PBS and coated into 96-well ELISA plate, at 4° C. overnight. The plate was washed and then blocked with Tris buffer (including 0.9 mM CaCl2, 0.05% Tween 20 and 5% skim milk) at 37° C. for 2 hours. Then the plate was washed again and 100 μl/well of the biotin-labeled PCSK9, produced in-house, (bio-WT-PCSK9, diluted with Tris buffer containing 0.9 mM CaCl2, 0.05% Tween 20 and 1% skim milk), was added and incubated at 37° C. for 1 hour. After the wash step, different concentrations of diluted PCSK9 antibody samples was added to the plate and incubated at 37° C. for 1 hour. Then the plate was washed again and HRP-goat-anti-human (H+L) antibody (Jackson ImmunoResearch, CAT#109-035-088) was added and incubated at 37° C. for 1 hour. Then the plate was washed again and tetramethylbenzidine solution was added for development. Finally, the stop solution was added and the OD450 value was measured on the Microplate reader, and then EC50 was calculated.
Binder,EC50 (PCSK9-D374Y-BP15-His6) [µg/mL],EC50 (PCSK9-BP15-His6) [µg/mL]
"h001-14 (antibody, human IgG1, V domains shown, Variable regions only; also called h001_VH.1C + h001_VL.1A) VH: QVQLVQSGAEVKKPGASVKVSCKASGYTFNDYWMHWVRQAPGQGLEWMGYINPSSGFTKYHQNFKDRVTMTRDTSISTAYMELSRLTSDDTAVYYCARQYDYDEDWYFDVWGQGTTVTVSS VL: DIQMTQSPSSLSASVGDRVTITCKSSQSLLNSRTRKNFLAWYQQKPGKAPKLLIYWASTRESGVPDRFSGSGSGTDFTLTISSLQPEDFATYYCKQSFNLFTFGQGTKLEIK",0.0112,0.0084
"h001-20 (antibody, human IgG1, V domains shown, Variable regions only; also called h001_VH.1D + h001_VL.1C) VH: QVQLVQSGAEVKKPGASVKVSCKASGYTFNDYWMHWVRQAPGQGLEWMGYINPSSGFTKYHQNFKDRVTMTADKSISTAYMELSRLTSDDTAVYYCARQYDYDEDWYFDVWGQGTTVTVSS VL: DIVMSQSPSSLSASVGDRVTITCKSSQSLLNSRTRKNFLAWYQQKPGKSPKLLIYWASTRESGVPDRFSGSGSGTDFTLTISSLQPEDFATYYCKQSFNLFTFGQGTKLEIK",0.017,0.0126
"h001-12 (antibody, human IgG1, V domains shown, Variable regions only; also called h001_VH.1B + h001_VL.1C) VH: QVQLVQSGAEVKKPGASVKVSCKASGYTFTDYWMHWVRQAPGQGLEWMGYINPSSGFTKYHQNFKDRVTMTRDTSISTAYMELSRLTSDDTAVYYCARQYDYDEDWYFDVWGQGTTVTVSS VL: DIVMSQSPSSLSASVGDRVTITCKSSQSLLNSRTRKNFLAWYQQKPGKSPKLLIYWASTRESGVPDRFSGSGSGTDFTLTISSLQPEDFATYYCKQSFNLFTFGQGTKLEIK",0.0124,0.0103
"h001-19 (antibody, human IgG1, V domains shown, Variable regions only; also called h001_VH.1D + h001_VL.1B) VH: QVQLVQSGAEVKKPGASVKVSCKASGYTFNDYWMHWVRQAPGQGLEWMGYINPSSGFTKYHQNFKDRVTMTADKSISTAYMELSRLTSDDTAVYYCARQYDYDEDWYFDVWGQGTTVTVSS VL: DIQMSQSPSSLSASVGDRVTITCKSSQSLLNSRTRKNFLAWYQQKPGKAPKLLIYWASTRESGVPDRFSGSGSGTDFTLTISSLQPEDFATYYCKQSFNLFTFGQGTKLEIK",0.0204,0.0139
"h001-15 (antibody, human IgG1, V domains shown, Variable regions only; also called h001_VH.1C + h001_VL.1B) VH: QVQLVQSGAEVKKPGASVKVSCKASGYTFNDYWMHWVRQAPGQGLEWMGYINPSSGFTKYHQNFKDRVTMTRDTSISTAYMELSRLTSDDTAVYYCARQYDYDEDWYFDVWGQGTTVTVSS VL: DIQMSQSPSSLSASVGDRVTITCKSSQSLLNSRTRKNFLAWYQQKPGKAPKLLIYWASTRESGVPDRFSGSGSGTDFTLTISSLQPEDFATYYCKQSFNLFTFGQGTKLEIK",0.0178,0.011
"h001-23 (antibody, human IgG1, V domains shown, Variable regions only; also called h001_VH.1E + h001_VL.1B) VH: QVQLVQSGAEVKKPGASVKVSCKASGYTFNDYWMHWVKQAPGQGLEWIGYINPSSGFTKYHQNFKDKATLTADKSISTAYMELSRLTSDDTAVYYCARQYDYDEDWYFDVWGQGTTVTVSS VL: DIQMSQSPSSLSASVGDRVTITCKSSQSLLNSRTRKNFLAWYQQKPGKAPKLLIYWASTRESGVPDRFSGSGSGTDFTLTISSLQPEDFATYYCKQSFNLFTFGQGTKLEIK",0.0125,0.0118
"h001-17 (antibody, human IgG1, V domains shown, Variable regions only; also called h001_VH.1D + h001_VL.1) VH: QVQLVQSGAEVKKPGASVKVSCKASGYTFNDYWMHWVRQAPGQGLEWMGYINPSSGFTKYHQNFKDRVTMTADKSISTAYMELSRLTSDDTAVYYCARQYDYDEDWYFDVWGQGTTVTVSS VL: DIQMTQSPSSLSASVGDRVTITCKSSQSLLNSRTRKNFLAWYQQKPGKAPKLLIYWASTRESGVPSRFSGSGSGTDFTLTISSLQPEDFATYYCKQSFNLFTFGQGTKLEIK",0.0161,0.0114
"h001-22 (antibody, human IgG1, V domains shown, Variable regions only; also called h001_VH.1E + h001_VL.1A) VH: QVQLVQSGAEVKKPGASVKVSCKASGYTFNDYWMHWVKQAPGQGLEWIGYINPSSGFTKYHQNFKDKATLTADKSISTAYMELSRLTSDDTAVYYCARQYDYDEDWYFDVWGQGTTVTVSS VL: DIQMTQSPSSLSASVGDRVTITCKSSQSLLNSRTRKNFLAWYQQKPGKAPKLLIYWASTRESGVPDRFSGSGSGTDFTLTISSLQPEDFATYYCKQSFNLFTFGQGTKLEIK",0.0111,0.0123
"h001-24 (antibody, human IgG1, V domains shown, Variable regions only; also called h001_VH.1E + h001_VL.1C) VH: QVQLVQSGAEVKKPGASVKVSCKASGYTFNDYWMHWVKQAPGQGLEWIGYINPSSGFTKYHQNFKDKATLTADKSISTAYMELSRLTSDDTAVYYCARQYDYDEDWYFDVWGQGTTVTVSS VL: DIVMSQSPSSLSASVGDRVTITCKSSQSLLNSRTRKNFLAWYQQKPGKSPKLLIYWASTRESGVPDRFSGSGSGTDFTLTISSLQPEDFATYYCKQSFNLFTFGQGTKLEIK",0.017,0.0092
"h001-13 (antibody, human IgG1, V domains shown, Variable regions only; also called h001_VH.1C + h001_VL.1) VH: QVQLVQSGAEVKKPGASVKVSCKASGYTFNDYWMHWVRQAPGQGLEWMGYINPSSGFTKYHQNFKDRVTMTRDTSISTAYMELSRLTSDDTAVYYCARQYDYDEDWYFDVWGQGTTVTVSS VL: DIQMTQSPSSLSASVGDRVTITCKSSQSLLNSRTRKNFLAWYQQKPGKAPKLLIYWASTRESGVPSRFSGSGSGTDFTLTISSLQPEDFATYYCKQSFNLFTFGQGTKLEIK",0.0096,0.0071
"h001-16 (antibody, human IgG1, V domains shown, Variable regions only; also called h001_VH.1C + h001_VL.1C) VH: QVQLVQSGAEVKKPGASVKVSCKASGYTFNDYWMHWVRQAPGQGLEWMGYINPSSGFTKYHQNFKDRVTMTRDTSISTAYMELSRLTSDDTAVYYCARQYDYDEDWYFDVWGQGTTVTVSS VL: DIVMSQSPSSLSASVGDRVTITCKSSQSLLNSRTRKNFLAWYQQKPGKSPKLLIYWASTRESGVPDRFSGSGSGTDFTLTISSLQPEDFATYYCKQSFNLFTFGQGTKLEIK",0.0111,0.0082
"h001-21 (antibody, human IgG1, V domains shown, Variable regions only; also called h001_VH.1E + h001_VL.1) VH: QVQLVQSGAEVKKPGASVKVSCKASGYTFNDYWMHWVKQAPGQGLEWIGYINPSSGFTKYHQNFKDKATLTADKSISTAYMELSRLTSDDTAVYYCARQYDYDEDWYFDVWGQGTTVTVSS VL: DIQMTQSPSSLSASVGDRVTITCKSSQSLLNSRTRKNFLAWYQQKPGKAPKLLIYWASTRESGVPSRFSGSGSGTDFTLTISSLQPEDFATYYCKQSFNLFTFGQGTKLEIK",0.0119,0.0145
"h001-11 (antibody, human IgG1, V domains shown, Variable regions only; also called h001_VH.1B + h001_VL.1B) VH: QVQLVQSGAEVKKPGASVKVSCKASGYTFTDYWMHWVRQAPGQGLEWMGYINPSSGFTKYHQNFKDRVTMTRDTSISTAYMELSRLTSDDTAVYYCARQYDYDEDWYFDVWGQGTTVTVSS VL: DIQMSQSPSSLSASVGDRVTITCKSSQSLLNSRTRKNFLAWYQQKPGKAPKLLIYWASTRESGVPDRFSGSGSGTDFTLTISSLQPEDFATYYCKQSFNLFTFGQGTKLEIK",0.017,0.0129
"h001-18 (antibody, human IgG1, V domains shown, Variable regions only; also called h001_VH.1D + h001_VL.1A) VH: QVQLVQSGAEVKKPGASVKVSCKASGYTFNDYWMHWVRQAPGQGLEWMGYINPSSGFTKYHQNFKDRVTMTADKSISTAYMELSRLTSDDTAVYYCARQYDYDEDWYFDVWGQGTTVTVSS VL: DIQMTQSPSSLSASVGDRVTITCKSSQSLLNSRTRKNFLAWYQQKPGKAPKLLIYWASTRESGVPDRFSGSGSGTDFTLTISSLQPEDFATYYCKQSFNLFTFGQGTKLEIK",0.0191,0.0147
